Target: T1, IGF-II receptor (Homo sapiens, UniProt P11717)
T1 construct: membrane extracts of postmortem frontal lobe tissue as the sources of receptors; from tissue; host or cells: postmortem frontal lobe tissue, homogenates pooled per Braak stage group
Experiment: Saturation binding (Scatchard) of [125I]-IGF-II to postmortem frontal lobe membrane extracts by AD Braak stage
Design: unit not given here
Description: Protein concentration was determined using the bicinchoninic acid (BCA) assay (Pierce, Rockford, Ill.). Preliminary studies determined the amounts of protein and concentrations of radiolabeled ligand required to achieve 20% specific binding.
IGF-I binding assays required 25 μg protein per sample, and IGF-II receptor binding assays were performed with 10 μg protein. Equilibrium binding assays were used to assess growth factor binding levels in relation to AD stage severity. This was accomplished by determining net specific binding after incubating the protein samples at 4° C. overnight with a fixed amount of radioligand, in the presence or absence of excess cold ligand and then subtracting the values obtained for non-specific binding from those corresponding to the total binding. To measure total binding, individual protein samples were incubated in 100 μl reactions containing binding buffer (100 mM HEPES, pH 8.0, 118 mM NaCl, 1.2 mM MgSO4, 8.8 mM dextrose, 5 mM KCl, 1% bovine serum albumin) and 100 nCi/ml [^125I] […] To measure non-specific binding, replicate samples were prepared as indicated with the addition of 0.1 μM unlabeled (cold) ligand.
Saturation binding assays were performed to assess top-level (maximum) binding and binding affinity in relation to AD stage severity. Samples from 8-12 brains per Braak stage group were pooled in equal proportions and used to generate binding curves. Protein concentrations of the pooled homogenates were determined with the BCA assay. Duplicate samples were incubated in 100 μl reaction volumes containing binding buffer and 0.0031 to 1 μCi/ml of [^125I] […] To measure non-specific binding, duplicate reactions were incubated with the same concentrations of radiolabeled ligand plus 0.1 μM unlabeled (cold) competitive ligand. The data were graphed and analyzed using the GraphPad Prism 4 software to calculate the Bmax, kD (dissociation constant), and their standard deviations and 95% confidence intervals.
Reactions were performed in 1.5 ml Eppendorff tubes at 4° C. for 16 hours with gentle platform agitation. […] The samples were counted for 1 minute each in an LKB CompuGamma CS Gamma counter. Specific binding was calculated by subtracting CPM or fmol of non-specific binding, i.e., amount bound in the presence of cold ligand, from the total CPM or fmol bound (absence of unlabeled competitive ligand). After determining that the data fit a one-site rather than a two-site model, the results were analyzed using non-linear regression to calculate saturation binding (Bmax) and binding affinity (kD) with Scatchard analysis performed to measure saturation binding and binding affinity using GraphPad Prism 4 software (GraphPad Software, Inc., San Diego, Calif.).

T1 sequence (P11717 41-2491): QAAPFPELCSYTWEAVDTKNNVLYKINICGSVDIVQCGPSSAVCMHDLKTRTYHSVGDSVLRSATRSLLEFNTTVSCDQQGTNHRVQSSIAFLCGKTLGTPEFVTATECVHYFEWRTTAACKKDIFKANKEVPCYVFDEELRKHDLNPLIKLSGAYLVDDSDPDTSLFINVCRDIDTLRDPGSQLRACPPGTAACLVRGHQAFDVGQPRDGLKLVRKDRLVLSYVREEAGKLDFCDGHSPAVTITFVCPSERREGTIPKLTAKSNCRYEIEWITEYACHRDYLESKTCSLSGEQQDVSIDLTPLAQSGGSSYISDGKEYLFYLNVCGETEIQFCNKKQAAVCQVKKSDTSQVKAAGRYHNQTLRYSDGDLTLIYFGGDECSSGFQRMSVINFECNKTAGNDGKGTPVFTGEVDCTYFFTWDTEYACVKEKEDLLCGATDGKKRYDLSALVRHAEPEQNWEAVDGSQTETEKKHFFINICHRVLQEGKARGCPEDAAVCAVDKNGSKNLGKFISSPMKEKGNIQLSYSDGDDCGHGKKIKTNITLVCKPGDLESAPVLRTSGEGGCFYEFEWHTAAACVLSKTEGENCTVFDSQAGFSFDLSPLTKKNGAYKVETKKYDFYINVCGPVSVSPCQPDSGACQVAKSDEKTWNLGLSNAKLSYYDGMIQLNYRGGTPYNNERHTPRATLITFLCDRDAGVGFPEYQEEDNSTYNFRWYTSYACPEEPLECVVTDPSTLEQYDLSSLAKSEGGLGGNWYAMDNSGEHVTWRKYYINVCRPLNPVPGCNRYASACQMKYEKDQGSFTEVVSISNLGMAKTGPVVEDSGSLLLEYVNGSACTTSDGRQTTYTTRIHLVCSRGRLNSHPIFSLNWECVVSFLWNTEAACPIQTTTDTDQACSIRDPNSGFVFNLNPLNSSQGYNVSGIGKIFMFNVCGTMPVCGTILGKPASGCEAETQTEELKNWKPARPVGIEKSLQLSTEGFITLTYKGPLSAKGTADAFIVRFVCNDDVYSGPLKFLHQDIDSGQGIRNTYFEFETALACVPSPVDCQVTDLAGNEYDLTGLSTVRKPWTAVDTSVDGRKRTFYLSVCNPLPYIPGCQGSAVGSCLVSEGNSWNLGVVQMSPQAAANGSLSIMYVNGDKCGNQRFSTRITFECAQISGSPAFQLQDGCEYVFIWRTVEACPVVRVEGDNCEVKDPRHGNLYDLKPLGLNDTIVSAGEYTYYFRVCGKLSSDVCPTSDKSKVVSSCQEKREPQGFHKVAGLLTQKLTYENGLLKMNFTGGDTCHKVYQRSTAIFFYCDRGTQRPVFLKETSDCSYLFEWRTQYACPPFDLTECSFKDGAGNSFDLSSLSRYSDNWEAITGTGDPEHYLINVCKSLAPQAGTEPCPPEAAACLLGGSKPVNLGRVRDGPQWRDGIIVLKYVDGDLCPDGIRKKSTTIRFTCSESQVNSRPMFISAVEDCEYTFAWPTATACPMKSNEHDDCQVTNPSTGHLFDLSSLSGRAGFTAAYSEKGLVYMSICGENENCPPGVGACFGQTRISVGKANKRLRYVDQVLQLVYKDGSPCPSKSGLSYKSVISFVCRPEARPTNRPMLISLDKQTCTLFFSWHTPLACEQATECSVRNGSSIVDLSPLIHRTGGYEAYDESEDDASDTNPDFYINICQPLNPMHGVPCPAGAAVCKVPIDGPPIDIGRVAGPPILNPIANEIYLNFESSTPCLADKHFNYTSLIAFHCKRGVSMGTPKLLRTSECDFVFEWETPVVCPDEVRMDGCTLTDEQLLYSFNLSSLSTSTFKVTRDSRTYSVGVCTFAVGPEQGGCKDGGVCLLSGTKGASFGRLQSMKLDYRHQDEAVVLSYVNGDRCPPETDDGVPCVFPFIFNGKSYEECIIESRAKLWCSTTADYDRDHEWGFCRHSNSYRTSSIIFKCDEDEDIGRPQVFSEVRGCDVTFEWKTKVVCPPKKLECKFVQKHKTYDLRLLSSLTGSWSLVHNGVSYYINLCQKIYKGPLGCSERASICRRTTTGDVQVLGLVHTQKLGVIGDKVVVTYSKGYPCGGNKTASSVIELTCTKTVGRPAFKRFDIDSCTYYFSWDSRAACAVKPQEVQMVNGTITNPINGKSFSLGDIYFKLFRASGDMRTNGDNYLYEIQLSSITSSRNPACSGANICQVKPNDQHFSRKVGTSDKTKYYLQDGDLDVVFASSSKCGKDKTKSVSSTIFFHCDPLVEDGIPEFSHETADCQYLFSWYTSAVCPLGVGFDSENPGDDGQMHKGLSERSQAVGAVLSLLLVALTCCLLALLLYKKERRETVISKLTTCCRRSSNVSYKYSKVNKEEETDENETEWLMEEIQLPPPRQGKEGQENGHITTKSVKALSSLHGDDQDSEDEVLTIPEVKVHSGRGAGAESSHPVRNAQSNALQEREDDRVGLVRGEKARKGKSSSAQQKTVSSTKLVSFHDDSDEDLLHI

Substance: IGF-II: [125I]-labeled IGF-II used as tracer in brain membrane binding assays
- BMAX, IGF-II binding (Braak 0-1): 16.83
- BMAX, IGF-II binding (Braak 2-3): 12.53
- BMAX, IGF-II binding (Braak 4-5): 8.136
- BMAX, IGF-II binding (Braak 6): 4.713

— US7833513B2, “Treatment of Alzheimer's Disease” (Rhode Island Hospital, priority 2004, dated 2010)
